In US20190083615A1:

Target: cynomolgous monkey LAG3 expressed on cells (cynomolgous monkey)
Test: cell based KinExA, BaF/3 cells transfected with cynomolgus LAG3 (n=2)

Chain of cynomolgous monkey LAG3 expressed on cells (cynomolgous monkey) (P18627 other isoform, or with tags, fused parts or gaps limits assumed): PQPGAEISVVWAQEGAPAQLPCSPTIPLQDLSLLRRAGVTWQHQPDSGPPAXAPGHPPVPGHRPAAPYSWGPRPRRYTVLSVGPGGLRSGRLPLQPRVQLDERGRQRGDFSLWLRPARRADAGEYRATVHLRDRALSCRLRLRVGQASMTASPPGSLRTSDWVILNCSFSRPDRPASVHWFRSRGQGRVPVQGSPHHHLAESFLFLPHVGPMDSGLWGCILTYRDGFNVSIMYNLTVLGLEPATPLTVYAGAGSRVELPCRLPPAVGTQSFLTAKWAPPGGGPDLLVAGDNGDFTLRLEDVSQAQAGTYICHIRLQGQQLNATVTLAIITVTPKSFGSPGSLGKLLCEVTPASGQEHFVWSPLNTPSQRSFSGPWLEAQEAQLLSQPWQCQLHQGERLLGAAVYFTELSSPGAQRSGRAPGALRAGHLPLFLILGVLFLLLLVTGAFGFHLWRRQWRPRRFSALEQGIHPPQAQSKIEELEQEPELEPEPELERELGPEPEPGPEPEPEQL

B1: 22D2 chimera: chimeric antibody [LAG3_H] mAb (LB145.22D2.E1.D1 (VH0/VL0) Geneart) IgG4 S228P/kappa (PX) (antibody, V domains shown)
VH: EVLLLQSGPELVKPGTSVKIPCKASGYTFTDYNVDWVKQRHGKGLEWIGDINPNNGGTIYSQKFKGKATLTVDKSSSTAFMELRSLTSEDTAVYFCARNYRWFGAMDHWGQGTSVTVSS
VL: DIVLTQSPASLAVSPGQRATISCKASQSLDYEGDSDMNWYQQKPGQPPRLLISGASNLESGIPARFSGSGSGTDFTVNIHPVEEEDAATYYCQQSTEDPRTFGGGTKLEIK
  Kd: 11 pM
